These results are taken from PMC5959011.

For orientation: stoichiometry N means the number of molecules, sites or subunits per partner or assembly.

Test [1] addresses smallest capsid protein (SCP) VP26 (herpes simplex virus type 1 (HSV-1), strain KOS) (UniProt P10219). Kind of test: cryo-EM structure.
The target of test [2] is tegument protein pUL25 (herpes simplex virus type 1 (HSV-1), strain KOS) (UniProt P10209). Description: cryo-EM structure.

Substance “smallest capsid protein (SCP) VP26 (from UniProt P10219 1-112) (natural protein)” showed a stoichiometry N in test [1] of 6.

In test [2], “tegument protein pUL25 (from UniProt P10209 1-580) (natural protein)” showed a stoichiometry N of 2.
